Source: paper doi:10.1101/2025.03.07.642005 (bioRxiv, 2025)

Experiments:
[1] = target: T1, GatA, subunit A of the aminoacyl-tRNA amidotransferase complex GatCAB (Arabidopsis, UniProt Q9LI77 45-537); assay: SEC
T1 sequence: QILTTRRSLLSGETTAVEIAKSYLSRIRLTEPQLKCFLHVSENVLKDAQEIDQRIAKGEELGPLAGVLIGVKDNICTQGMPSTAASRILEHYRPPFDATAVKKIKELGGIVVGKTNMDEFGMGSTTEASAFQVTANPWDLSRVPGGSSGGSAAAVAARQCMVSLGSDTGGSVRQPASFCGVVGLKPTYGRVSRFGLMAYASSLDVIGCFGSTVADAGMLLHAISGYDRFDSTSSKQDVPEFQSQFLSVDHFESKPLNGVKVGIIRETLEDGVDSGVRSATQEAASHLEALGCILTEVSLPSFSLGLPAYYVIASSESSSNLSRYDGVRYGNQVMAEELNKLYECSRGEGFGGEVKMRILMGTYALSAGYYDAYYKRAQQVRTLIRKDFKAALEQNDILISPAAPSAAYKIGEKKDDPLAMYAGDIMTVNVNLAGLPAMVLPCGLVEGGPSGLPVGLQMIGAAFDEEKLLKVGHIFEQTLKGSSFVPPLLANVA

[2] = target: T2, GatB, subunit B of the aminoacyl-tRNA amidotransferase complex GatCAB (Arabidopsis, UniProt Q9FV81 60-550); assay: SEC
T2 sequence: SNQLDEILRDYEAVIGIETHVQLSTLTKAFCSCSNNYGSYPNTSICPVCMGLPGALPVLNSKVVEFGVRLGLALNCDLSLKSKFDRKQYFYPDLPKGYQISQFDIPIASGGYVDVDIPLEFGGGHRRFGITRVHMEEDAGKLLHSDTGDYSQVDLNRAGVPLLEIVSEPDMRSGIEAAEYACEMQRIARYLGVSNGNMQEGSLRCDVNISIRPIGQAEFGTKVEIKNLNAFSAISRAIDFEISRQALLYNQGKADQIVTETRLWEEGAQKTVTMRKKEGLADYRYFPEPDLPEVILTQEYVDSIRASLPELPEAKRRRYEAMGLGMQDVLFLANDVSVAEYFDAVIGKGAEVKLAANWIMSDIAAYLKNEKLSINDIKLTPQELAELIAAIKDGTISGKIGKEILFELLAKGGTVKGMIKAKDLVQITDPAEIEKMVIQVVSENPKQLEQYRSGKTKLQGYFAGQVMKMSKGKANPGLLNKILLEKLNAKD

binding result [1]: binds
binding result [2]: binds
B1: GatC, subunit C of the aminoacyl-tRNA amidotransferase complex GatCAB (natural protein)
chain: RSYSSDSDSSVLQPPDVARLAQTARISLTPAEIEECETKIRRVIDWFGQLQQVDVNSVEPAIRAEMDGGNLREDAPETFDNRDSIRASIPSFEDAYLKVPKILNKE
